# Results from the supplement of paper PMC5998384.
# Key:
# HeLa Kyoto [1] = assay: solubility change mitosis vs G1/S (difference of NP-40 vs SDS log2 ratios) (log2 ratio difference); higher = more soluble in mitosis
# HeLa Kyoto [2] = assay: solubility in G1/S (NP-40 vs SDS abundance) (log2 ratio); higher = more soluble; conditions: cell cycle stage: G1/S
# HeLa Kyoto [3] = assay: thermal stability score vs G1/S (z-score of summed log2 fold changes over temperatures); higher = more thermally stable than in G1/S
# HeLa Kyoto [4] = assay: melting temperature (median over replicates), in situ; higher = more thermally stable
# [5] = cell cycle stage: early G1 (4.5 h after nocodazole release)
# 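For melting temperature (median over replicates), in situ in this document: HeLa Kyoto cells synchronized by double thymidine or nocodazole block, proteins quantified by TMT10plex mass spectrometry, three independent biological replicates.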
# 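For solubility change mitosis vs G1/S (difference of NP-40 vs SDS log2 ratios) in this document: synchronized HeLa Kyoto cells (double thymidine block for G1/S, nocodazole release for mitosis), protein amounts in NP-40 versus SDS lysates quantified by mass spectrometry, three biological replicates.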
# 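For solubility in G1/S (NP-40 vs SDS abundance) in this document: HeLa Kyoto cells arrested at G1/S by double thymidine block, proteins quantified by TMT10plex mass spectrometry in mild NP-40 versus SDS extracts, three biological replicates.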
# 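For thermal stability score vs G1/S (z-score of summed log2 fold changes over temperatures) in this document: synchronized HeLa Kyoto cells, proteins quantified by TMT10plex mass spectrometry, three biological replicates, mitosis taken 0.5 h after nocodazole release, G1/S directly after double thymidine block.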
# Sequence of SBF2 (chain, as listed by the source): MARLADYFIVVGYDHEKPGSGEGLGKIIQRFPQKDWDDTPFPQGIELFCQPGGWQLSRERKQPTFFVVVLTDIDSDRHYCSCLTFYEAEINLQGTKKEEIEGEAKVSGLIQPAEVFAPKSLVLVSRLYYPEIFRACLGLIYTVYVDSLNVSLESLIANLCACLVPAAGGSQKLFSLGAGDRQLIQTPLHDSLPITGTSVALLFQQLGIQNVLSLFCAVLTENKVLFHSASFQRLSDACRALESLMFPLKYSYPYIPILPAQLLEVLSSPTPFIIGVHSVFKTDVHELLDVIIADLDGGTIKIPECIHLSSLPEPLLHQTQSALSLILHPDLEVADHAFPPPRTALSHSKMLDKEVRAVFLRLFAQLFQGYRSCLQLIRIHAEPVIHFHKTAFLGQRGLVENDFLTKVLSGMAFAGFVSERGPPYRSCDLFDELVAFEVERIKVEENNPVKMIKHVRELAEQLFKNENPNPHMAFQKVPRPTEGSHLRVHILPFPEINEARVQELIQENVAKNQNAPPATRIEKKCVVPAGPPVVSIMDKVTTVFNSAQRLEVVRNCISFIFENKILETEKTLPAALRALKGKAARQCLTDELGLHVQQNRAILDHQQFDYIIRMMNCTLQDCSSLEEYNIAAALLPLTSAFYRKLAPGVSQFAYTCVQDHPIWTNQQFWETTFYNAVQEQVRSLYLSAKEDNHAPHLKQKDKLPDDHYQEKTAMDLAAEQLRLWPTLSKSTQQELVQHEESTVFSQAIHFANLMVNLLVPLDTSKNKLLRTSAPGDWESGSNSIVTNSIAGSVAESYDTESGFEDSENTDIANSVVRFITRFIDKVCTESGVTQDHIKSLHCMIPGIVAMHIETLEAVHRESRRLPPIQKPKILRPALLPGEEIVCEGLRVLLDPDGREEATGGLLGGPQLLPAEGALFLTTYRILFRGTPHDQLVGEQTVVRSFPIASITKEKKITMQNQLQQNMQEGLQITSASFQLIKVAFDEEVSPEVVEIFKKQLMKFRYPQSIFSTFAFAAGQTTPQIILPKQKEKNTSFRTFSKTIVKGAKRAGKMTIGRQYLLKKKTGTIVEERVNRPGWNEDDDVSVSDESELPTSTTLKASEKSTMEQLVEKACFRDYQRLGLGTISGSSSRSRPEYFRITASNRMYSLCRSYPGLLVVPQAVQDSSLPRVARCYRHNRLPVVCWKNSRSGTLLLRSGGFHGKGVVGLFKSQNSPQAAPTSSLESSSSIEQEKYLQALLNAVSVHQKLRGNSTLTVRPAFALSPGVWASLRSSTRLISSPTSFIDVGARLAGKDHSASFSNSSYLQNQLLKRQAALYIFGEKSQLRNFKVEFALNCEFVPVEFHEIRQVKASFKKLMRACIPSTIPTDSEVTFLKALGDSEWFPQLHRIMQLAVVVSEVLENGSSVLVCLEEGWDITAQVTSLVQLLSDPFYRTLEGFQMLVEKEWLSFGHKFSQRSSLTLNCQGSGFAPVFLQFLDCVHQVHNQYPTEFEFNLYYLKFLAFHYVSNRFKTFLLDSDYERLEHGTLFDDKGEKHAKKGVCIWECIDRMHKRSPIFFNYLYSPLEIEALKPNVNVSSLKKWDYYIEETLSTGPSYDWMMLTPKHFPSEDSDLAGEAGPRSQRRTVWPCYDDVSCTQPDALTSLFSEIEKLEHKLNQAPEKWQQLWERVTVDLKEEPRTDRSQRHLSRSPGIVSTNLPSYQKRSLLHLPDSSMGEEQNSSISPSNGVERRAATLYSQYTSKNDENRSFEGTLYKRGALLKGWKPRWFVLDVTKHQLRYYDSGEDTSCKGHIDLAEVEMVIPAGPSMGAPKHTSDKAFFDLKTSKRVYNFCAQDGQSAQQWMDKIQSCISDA
# Sequence of CABIN1 (chain, as listed by the source): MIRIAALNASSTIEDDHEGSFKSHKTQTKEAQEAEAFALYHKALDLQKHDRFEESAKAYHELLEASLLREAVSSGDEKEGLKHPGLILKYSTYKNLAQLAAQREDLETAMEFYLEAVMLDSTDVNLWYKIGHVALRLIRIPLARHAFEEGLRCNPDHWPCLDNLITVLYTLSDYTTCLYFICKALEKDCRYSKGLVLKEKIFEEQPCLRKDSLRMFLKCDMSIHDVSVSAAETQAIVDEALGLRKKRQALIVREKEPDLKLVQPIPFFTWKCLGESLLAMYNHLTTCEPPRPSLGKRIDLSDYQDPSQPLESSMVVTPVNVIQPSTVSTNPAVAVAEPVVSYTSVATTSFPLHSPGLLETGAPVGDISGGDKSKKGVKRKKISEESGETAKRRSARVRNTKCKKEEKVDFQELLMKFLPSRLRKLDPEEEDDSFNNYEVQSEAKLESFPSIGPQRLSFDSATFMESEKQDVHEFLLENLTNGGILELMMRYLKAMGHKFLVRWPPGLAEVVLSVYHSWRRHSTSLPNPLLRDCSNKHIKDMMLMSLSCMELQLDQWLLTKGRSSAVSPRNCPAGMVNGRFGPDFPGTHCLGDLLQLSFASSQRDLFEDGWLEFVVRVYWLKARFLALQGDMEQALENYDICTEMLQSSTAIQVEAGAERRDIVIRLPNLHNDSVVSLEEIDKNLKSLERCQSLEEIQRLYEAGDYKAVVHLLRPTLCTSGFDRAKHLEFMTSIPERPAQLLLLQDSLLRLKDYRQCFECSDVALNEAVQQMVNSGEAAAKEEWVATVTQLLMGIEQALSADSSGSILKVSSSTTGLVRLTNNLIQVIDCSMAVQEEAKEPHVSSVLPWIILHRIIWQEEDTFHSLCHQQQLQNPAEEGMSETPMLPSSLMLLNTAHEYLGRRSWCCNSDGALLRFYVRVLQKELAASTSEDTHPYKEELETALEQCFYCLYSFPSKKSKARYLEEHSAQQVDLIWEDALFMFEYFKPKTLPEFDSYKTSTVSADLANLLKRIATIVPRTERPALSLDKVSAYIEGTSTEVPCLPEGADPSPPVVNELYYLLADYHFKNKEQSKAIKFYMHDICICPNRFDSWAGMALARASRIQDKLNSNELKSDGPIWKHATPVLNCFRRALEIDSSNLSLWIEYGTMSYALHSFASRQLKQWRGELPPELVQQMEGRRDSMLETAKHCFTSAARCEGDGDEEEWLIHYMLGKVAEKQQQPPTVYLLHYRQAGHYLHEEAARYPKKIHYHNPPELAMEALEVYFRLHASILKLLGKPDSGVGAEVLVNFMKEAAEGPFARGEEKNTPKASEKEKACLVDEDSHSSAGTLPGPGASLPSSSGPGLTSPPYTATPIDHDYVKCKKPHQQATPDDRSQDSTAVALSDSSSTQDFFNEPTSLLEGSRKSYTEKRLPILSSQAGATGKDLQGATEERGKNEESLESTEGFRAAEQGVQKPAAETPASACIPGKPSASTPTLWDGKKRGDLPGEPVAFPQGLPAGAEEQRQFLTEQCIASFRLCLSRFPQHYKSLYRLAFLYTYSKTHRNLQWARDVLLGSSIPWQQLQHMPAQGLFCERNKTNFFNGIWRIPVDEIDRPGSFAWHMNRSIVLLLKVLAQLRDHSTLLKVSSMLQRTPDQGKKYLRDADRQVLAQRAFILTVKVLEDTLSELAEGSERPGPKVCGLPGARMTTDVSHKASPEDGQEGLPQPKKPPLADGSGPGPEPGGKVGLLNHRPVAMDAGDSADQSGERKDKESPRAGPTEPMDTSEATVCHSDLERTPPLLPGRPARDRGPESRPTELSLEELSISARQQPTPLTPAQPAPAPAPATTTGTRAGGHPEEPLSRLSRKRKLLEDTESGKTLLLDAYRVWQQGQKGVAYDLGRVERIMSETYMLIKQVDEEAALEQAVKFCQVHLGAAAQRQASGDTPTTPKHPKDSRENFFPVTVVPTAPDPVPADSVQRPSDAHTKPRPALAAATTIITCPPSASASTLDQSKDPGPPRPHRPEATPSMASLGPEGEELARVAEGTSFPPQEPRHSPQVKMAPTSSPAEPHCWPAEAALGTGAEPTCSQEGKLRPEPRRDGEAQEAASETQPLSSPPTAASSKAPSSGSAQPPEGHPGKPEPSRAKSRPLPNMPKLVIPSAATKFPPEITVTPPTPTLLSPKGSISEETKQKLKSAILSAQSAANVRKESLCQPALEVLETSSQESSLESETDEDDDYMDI
Substance,solubility change mitosis (log2) (HeLa Kyoto [1]),further results
ACTR3,-0.0203,–
ALMS1,0.225,solubility in G1/S (log2) (HeLa Kyoto [2]): 0.395
ALPK2,0.00635,solubility in G1/S (log2) (HeLa Kyoto [2]): -0.117
ARPC2,-0.0639,–
BAHCC1,0.257,solubility in G1/S (log2) (HeLa Kyoto [2]): -0.00383
BPTF,-0.0311,–
BTF3,0.172,–
CABIN1,0.144,solubility in G1/S (log2) (HeLa Kyoto [2]): -0.34
CDK2,-0.211,–
CTR9,-0.0445,–
DNPEP,-0.0236,–
DTX3L,0.0969,–
EEF2,-0.164,–
FAM175B,-0.114,–
FSCN1,-0.135,–
HIST1H4A,0.331,–
JMJD6,-0.18,–
LDHA,-0.0758,–
MALSKRELDELKPWIEKTVKRVLGFSEPTVVTAALNCVGKGMDKKKAADHLKPFLDDSTLRFVDKLFEAVEEGRSSRHSKSSSDRSRKRELKEVFGDDSEISKESSGVKKRRIPRFEEVEEEPEVIPGPPSESPGMLTKLQIKQMMEAATRQIEERKKQLSFISPPTPQPKTPSSSQPERLPIGNTIQPSQAATFMNDAIEKARKAAELQARIQAQLALKPGLIGNANMVGLANLHAMGIAPPKVELKDQTKPTPLILDEQGRTVDATGKEIELTHRMPTLKANIRAVKREQFKQQLKEKPSEDMESNTFFDPRVSIAPSQRQRRTFKFHDKGKFEKIAQRLRTKAQLEKLQAEISQAARKTGIHTSTRLALIAPKKELKEGDIPEIEWWDSYIIPNGFDLTEENPKREDYFGITNLVEHPAQLNPPVDNDTPVTLGVYLTKKEQKKLRRQTRREAQKELQEKVRLGLMPPPEPKVRISNLMRVLGTEAVQDPTKVEAHVRAQMAKRQKAHEEANAARKLTAEQRKVKKIKKLKEDISQGVHISVYRVRNLSNPAKKFKIEANAGQLYLTGVVVLHKDVNVVVVEGGPKAQKKFKRLMLHRIKWDEQTSNTKGDDDEESDEEAVKKTNKCVLVWEGTAKDRSFGEMKFKQCPTENMAREHFKKHGAEHYWDLALSESVLESTD [PRPF3],0.331,thermal stability score (HeLa Kyoto [3]; [5]): 0.798; thermal stability score (HeLa Kyoto [3]; cell cycle stage: mitosis): 3.15
MAQPGTLNLNNEVVKMRKEVKRIRVLVIRKLVRSVGRLKSKKGTEDALLKNQRRAQRLLEEIHAMKELKPDIVTKSALGDDINFEKIFKKPDSTATERAIARLAVHPLLKKKIDVLKAAVQAFKEARQNVAEVESSKNASEDNHSENTLYSNDNGSNLQREATVISEQKVKETKILAKKPIHNSKEKIAKMEHGPKAVTIANSPSKPSEKDSVVSLESQKTPADPKLKTLSQTKKNKGSDSSLSGNSDGGEEFCEEEKEYFDDSTEERFYKQSSMSEDSDSGDDFFIGKVRRTRKKESSCHSSVKEQKPLEKVFLKEDTGETHGDTRNDKIKPSTETRKLESVFFHSLSGSKSSRRNFKEQAPKTRSLDFPQNEPQIKNQFNKKLSGRLENTKQQLQLPLHPSWEASRRRKEQQSNIAVFQGKKITFDD [SRFBP1],0.584,thermal stability score (HeLa Kyoto [3]; [5]): -0.14; thermal stability score (HeLa Kyoto [3]; cell cycle stage: mitosis): -0.669
MMCGAPSATQPATAETQHIADQVRSQLEEKENKKFPVFKAVSFKSQVVAGTNYFIKVHVGDEDFVHLRVFQSLPHENKPLTLSNYQTNKAKHDELTYF [CSTB],-0.077,thermal stability score (HeLa Kyoto [3]; [5]): -2.35; thermal stability score (HeLa Kyoto [3]; cell cycle stage: mitosis): -3.83

Substance,solubility change mitosis (log2) (HeLa Kyoto [1]),further results
MRPL1,-0.101,–
MRPL2,0.0937,–
MRPL9,-0.0572,–
MRPL13,-0.0691,–
MRPL20,-0.0687,–
MRPL28,0.00818,–
MRPL30,0.00936,–
MRPL32,0.35,–
MRPL33,-0.0245,–
MRPL41,0.232,–
MRPL43,0.445,–
MRPS6,0.0185,–
MRPS10,-0.0122,–
MRPS11,-0.0467,–
MRPS21,0.0482,–
MRPS22,-0.0527,–
MRPS23,0.188,–
MRPS24,-0.0858,–
MRPS31,-0.0986,–
MRPS35,0.0565,–
MSYGRPPPDVEGMTSLKVDNLTYRTSPDTLRRVFEKYGRVGDVYIPRDRYTKESRGFAFVRFHDKRDAEDAMDAMDGAVLDGRELRVQMARYGRPPDSHHSRRGPPPRRYGGGGYGRRSRSPRRRRRSRSRSRSRSRSRSRSRYSRSKSRSRTRSRSRSTSKSRSARRSKSKSSSVSRSRSRSRSRSRSRSPPPVSKRESKSRSRSKSPPKSPEEEGAVSS [SRSF2],0.24,thermal stability score (HeLa Kyoto [3]; [5]): -2.71; thermal stability score (HeLa Kyoto [3]; cell cycle stage: mitosis): -5.51

Substance,solubility change mitosis (log2) (HeLa Kyoto [1]),further results
MTAEETVNVKEVEIIKLILDFLNSKKLHISMLALEKESGVINGLFSDDMLFLRQLILDGQWDEVLQFIQPLECMEKFDKKRFRYIILKQKFLEALCVNNAMSAEDEPQHLEFTMQEAVQCLHALEEYCPSKDDYSKLCLLLTLPRLTNHAEFKDWNPSTARVHCFEEACVMVAEFIPADRKLSEAGFKASNNRLFQLVMKGLLYECCVEFCQSKATGEEITESEVLLGIDLLCGNGCDDLDLSLLSWLQNLPSSVFSCAFEQKMLNIHVDKLLKPTKAAYADLLTPLISKLSPYPSSPMRRPQSADAYMTRSLNPALDGLTCGLTSHDKRISDLGNKTSPMSHSFANFHYPGVQNLSRSLMLENTECHSIYEESPERDTPVDAQRPIGSEILGQSSVSEKEPANGAQNPGPAKQEKNELRDSTEQFQEYYRQRLRYQQHLEQKEQQRQIYQQMLLEGGVNQEDGPDQQQNLTEQFLNRSIQKLGELNIGMDGLGNEVSALNQQCNGSKGNGSNGSSVTSFTTPPQDSSQRLTHDASNIHTSTPRNPGSTNHIPFLEESPCGSQISSEHSVIKPPLGDSPGSLSRSKGEEDDKSKKQFVCINILEDTQAVRAVAFHPAGGLYAVGSNSKTLRVCAYPDVIDPSAHETPKQPVVRFKRNKHHKGSIYCVAWSPCGQLLATGSNDKYVKVLPFNAETCNATGPDLEFSMHDGTIRDLAFMEGPESGGAILISAGAGDCNIYTTDCQRGQGLHALSGHTGHILALYTWSGWMIASGSQDKTVRFWDLRVPSCVRVVGTTFHGTGSAVASVAVDPSGRLLATGQEDSSCMLYDIRGGRMVQSYHPHSSDVRSVRFSPGAHYLLTGSYDMKIKVTDLQGDLTKQLPIMVVGEHKDKVIQCRWHTQDLSFLSSSADRTVTLWTYNG [WDR47],–,melting temperature (HeLa Kyoto [4]; cell cycle stage: G1/S): 54.4 °C; melting temperature (HeLa Kyoto [4]; cell cycle stage: mitosis): 52.6 °C; thermal stability score (HeLa Kyoto [3]; [5]): -2.39; thermal stability score (HeLa Kyoto [3]; cell cycle stage: mitosis): -1.92
MTKDKNSPGLKKKSQSVDINAPGFNPLAGAGKQTPQASKPPAPKTPIIEEEQNNAANTQKHPSRRSELKRFYTIDTGQKKTLDKKDGRRMSFQKPKGTIEYTVESRDSLNSIALKFDTTPNELVQLNKLFSRAVVTGQVLYVPDPEYVSSVESSPSLSPVSPLSPTSSEAEFDKTTNPDVHPTEATPSSTFTGIRPARVVSSTSEEEEAFTEKFLKINCKYITSGKGTVSGVLLVTPNNIMFDPHKNDPLVQENGCEEYGIMCPMEEVMSAAMYKEILDSKIKESLPIDIDQLSGRDFCHSKKMTGSNTEEIDSRIRDAGNDSASTAPRSTEESLSEDVFTESELSPIREELVSSDELRQDKSSGASSESVQTVNQAEVESLTVKSESTGTPGHLRSDTEHSTNEVGTLCHKTDLNNLEMAIKEDQIADNFQGISGPKEDSTSIKGNSDQDSFLHENSLHQEESQKENMPCGETAEFKQKQSVNKGKQGKEQNQDSQTEAEELRKLWKTHTMQQTKQQRENIQQVSQKEAKHKITSADGHIESSALLKEKQRHRLHKFLCLRVGKPMRKTFVSQASATMQQYAQRDKKHEYWFAVPQERTDHLYAFFIQWSPEIYAEDTGEYTREPGFIVVKKIEESETIEDSSNQAAAREWEVVSVAEYHRRIDALNTEELRTLCRRLQITTREDINSKQVATVKADLESESFRPNLSDPSELLLPDQIEKLTKHLPPRTIGYPWTLVYGTGKHGTSLKTLYRTMTGLDTPVLMVIKDSDGQVFGALASEPLKVSDGFYGTGETFVFTFCPEFEVFKWTGDNMFFIKGDMDSLAFGGGGGEFALWLDGDLYHGRSHSCKTFGNRTLSKKEDFFIQDIEIWAFE [OXR1],-0.176,thermal stability score (HeLa Kyoto [3]; [5]): -0.363; thermal stability score (HeLa Kyoto [3]; cell cycle stage: mitosis): -2.03
MTMAAAAVVARGAGARAATAAALRGGCGTAARGRPCAGPARPLCTAPGTAPDMKRYLWERYREAKRSTEELVPSIMSNLLNPDAIFSNNEMSLSDIEIYGFDYDYTLVFYSKHLHTLIFNAARDLLINEHRYPAEIRKYEYDPNFAIRGLHYDVQRAVLMKIDAFHYIQLGTVYRGLSVVPDEEVIEMYEGSHVPLEQMSDFYGKSSHGNTMKQFMDIFSLPEMTLLSCVNEYFLKNNIDYEPVHLYKDVKDSIRDVHIKGIMYRAIEADIEKYICYAEQTRAVLAKLADHGKKMFLITNSPSSFVDKGMSYIVGKDWRDLFDVVIVQAEKPNFFNDKRRPFRKMNEKGVLLWDKIHKLQKGQIYKQGNLYEFLKLTGWRGSRVLYFGDHIYSDLADLTLKHGWRTGAIIPELRSELKIMNTEQYIQTMTWLQTLTGLLEQMQVHRDAESQLVLQEWKKERKEMREMTKSFFNAQFGSLFRTDQNPTYFLRRLSRFADIYMASLSCLLNYDVSHTFYPRRTPLQHELPAWSERPPTFGTPLLQEAQAK [NT5DC3],–,melting temperature (HeLa Kyoto [4]; cell cycle stage: G1/S): 53.4 °C; melting temperature (HeLa Kyoto [4]; cell cycle stage: mitosis): 54 °C; thermal stability score (HeLa Kyoto [3]; [5]): -1.05; thermal stability score (HeLa Kyoto [3]; cell cycle stage: mitosis): -1.22
NAA40,0.145,–
PRKACB,-0.134,–
PSEN1,0.045,–
RPL3,0.667,–
RPL5,0.442,–
RPL7A,0.753,–
RPL9,0.502,–
RPL12,0.659,–
RPL13A,0.619,–
RPL18,0.797,–
RPL19,0.873,–
RPL21,0.856,–
RPL22,0.576,–
RPL26L1,0.994,–
RPL35,1.27,–
RPS2,0.389,–
RPS8,0.735,–
RPS9,0.434,–

Substance,solubility change mitosis (log2) (HeLa Kyoto [1]),further results
RPS13,0.484,–
RPS15,0.616,–
RPS15A,0.424,–
RPS16,0.511,–
RPS18,0.385,–
RPS28,0.73,–
RPS29,0.655,–
SBF2,–,melting temperature (HeLa Kyoto [4]; cell cycle stage: mitosis): 52.3 °C; thermal stability score (HeLa Kyoto [3]; [5]): -0.139; thermal stability score (HeLa Kyoto [3]; cell cycle stage: mitosis): 0.0344
SCFD1,-0.0937,–
SLIRP,0.0681,–
SNCA,0.157,–
STAM2,-0.173,–
SUPT6H,0.0526,–
TFRC,-0.13,–
TIMP1,–,melting temperature (HeLa Kyoto [4]; cell cycle stage: G1/S): 54.8 °C; melting temperature (HeLa Kyoto [4]; cell cycle stage: mitosis): 54.5 °C; thermal stability score (HeLa Kyoto [3]; [5]): 0.849; thermal stability score (HeLa Kyoto [3]; cell cycle stage: mitosis): -1.24
TPRG1L,-0.205,–
UBA52,0.558,–
VPS29,-0.224,–
WDR5,-0.102,–
